The target of one assay is T1, Rat ASGR-1 (rat, UniProt P02706 1-284).
T1 construct: Expressed on HEK 293 cells or as membrane prep on beads; cDNA GenBank NM_012503
T1 sequence: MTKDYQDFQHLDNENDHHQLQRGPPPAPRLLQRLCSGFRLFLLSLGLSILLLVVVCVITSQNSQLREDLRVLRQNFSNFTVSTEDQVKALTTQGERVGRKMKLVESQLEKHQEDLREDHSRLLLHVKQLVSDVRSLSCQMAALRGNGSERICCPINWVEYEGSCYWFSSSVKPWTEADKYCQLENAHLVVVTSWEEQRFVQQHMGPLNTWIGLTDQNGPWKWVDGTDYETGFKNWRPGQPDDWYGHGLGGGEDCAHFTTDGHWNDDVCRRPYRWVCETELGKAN
Briefly: FACS on transfected HEK 293 cells or membrane preps on beads; Y = signal at least 2x irrelevant IgG. The method, boiled down: (§1)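 Antibodies at normalized concentrations bound 1 h at 4° C to HEK 293 cells expressing each antigen, then Alexa Fluor 647 anti-Fc plus 7-AAD 15 min at 4° C, flow cytometry; empty-vector cells as negative. Alternatively, species ASGR-1 membrane preps on streptavidin beads, antibody 1 h RT, Alexa Fluor 488 anti-Fc; FACS buffer with 1 mM CaCl2 throughout.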

The target in the next assay is T2, Human ASGR-2 (human, UniProt P07307 1-311).
T2 construct: Expressed on HEK 293 cells; cDNA GenBank NM_080913.3; also called huASGR-2; hASGR-2
T2 sequence: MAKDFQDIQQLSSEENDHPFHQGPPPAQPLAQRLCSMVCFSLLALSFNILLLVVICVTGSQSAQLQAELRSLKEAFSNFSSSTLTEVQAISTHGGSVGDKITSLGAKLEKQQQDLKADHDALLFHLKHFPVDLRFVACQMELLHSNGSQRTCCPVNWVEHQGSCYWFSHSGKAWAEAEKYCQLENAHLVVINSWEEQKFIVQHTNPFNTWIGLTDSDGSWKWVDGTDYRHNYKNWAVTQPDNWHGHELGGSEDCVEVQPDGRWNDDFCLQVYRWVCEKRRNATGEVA
Briefly: FACS on transfected HEK 293 cells; Y = signal at least 2x irrelevant IgG. As to the method:
Human ASGR-1-specific, ligand competing antibody samples were tested for binding to ASGR-1 from other species (cynomologus monkey ASGR-1, mouse ASGR-1, rat ASGR-1, dog ASGR-1, and pig ASGR-1) as well as to human ASGR-2 in FACS binding assays at normalized antibody concentrations. For cell-based assays, HEK 293 cells expressing the appropriate antigen of interest were mixed with antibody sample or controls, incubated for 1 hour at 4° C., and then washed twice. Cells with bound antibody were then incubated with Alexa Fluor® 647 IgG Fc fragment-specific detection antibody and 7-AAD viability stain for 15 minutes at 4° C., washed once and resuspended in FACS buffer. Samples were analyzed using a BD Accuri™ Flow Cytometer and an Intellicyt HyperCyt Autosampler. As a negative control, supernatants and controls were also screened against HEK 293 cells transfected with empty parental vector. […] For membrane-prep binding assays, ASGR-1 species specific membrane preps were used to coat LumAvidin® microspheres (beads) and tested for binding to selected hybridoma supernatants or controls. Briefly, ASGR-1 species specific membrane preps were incubated with streptavidin-coated LumAvidin® beads for 45 minutes in the dark at room temperature and washed twice. Beads were resuspeneded in FACS buffer containing Stabilguard®. […] Samples were analyzed using an Intellicyt iQue™ Screener Platform. […]

In another assay the target is T3, Dog ASGR-1 (dog).
T3 construct: Expressed on HEK 293 cells or as membrane prep on beads; cDNA GenBank XM_546579
T3 chain: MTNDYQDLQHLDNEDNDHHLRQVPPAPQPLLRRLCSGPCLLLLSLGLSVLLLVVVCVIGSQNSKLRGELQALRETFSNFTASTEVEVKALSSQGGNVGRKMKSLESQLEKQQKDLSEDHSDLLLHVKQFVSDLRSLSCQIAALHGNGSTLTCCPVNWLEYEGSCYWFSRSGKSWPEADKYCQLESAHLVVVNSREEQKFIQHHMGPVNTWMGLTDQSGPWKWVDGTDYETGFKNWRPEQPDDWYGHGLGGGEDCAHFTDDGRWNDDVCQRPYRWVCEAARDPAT
The assay is described as follows: FACS on transfected HEK 293 cells or membrane preps on beads; binding = signal at least 2x irrelevant IgG. The method in brief:
as §1

A further assay addresses T4, Pig ASGR-1 (pig).
T4 construct: Expressed on HEK 293 cells or as membrane prep on beads; cDNA GenBank NM_001244458
T4 chain: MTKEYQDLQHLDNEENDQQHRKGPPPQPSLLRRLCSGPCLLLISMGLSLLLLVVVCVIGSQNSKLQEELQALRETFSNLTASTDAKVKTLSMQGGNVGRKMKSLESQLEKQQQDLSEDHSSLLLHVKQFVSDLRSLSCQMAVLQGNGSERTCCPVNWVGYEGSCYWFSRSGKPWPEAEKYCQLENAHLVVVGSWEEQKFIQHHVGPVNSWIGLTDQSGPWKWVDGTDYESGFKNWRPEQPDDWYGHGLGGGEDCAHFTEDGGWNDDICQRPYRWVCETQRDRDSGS
Described as above. The method in brief: as §1

B1: 6G7 (antibody, V domains shown)
VH: QVQLVESGGGVVQPGRSLRLSCAASGFTFSSYGMHWVRQTPGKGLEWVAIISYVGKNKYYADSVKGRFTISRDNSKNTLYLQMNSLRAEDTAVYYCARRGNSYGGYGMDVWGQGTTVTVSS
VL: DIQMTQSPSSRSASVGDRVTITCQASQDISNYLNWCQQKPGKALKLLIYDASTLETGVPSRFSGSGSGTDFTFTISSVQPEDIATYYCQQYDNVPITFGQGTRLEIK
notes: Tested as hybridoma supernatant at normalized concentration
With B1, the binding result in the assay with Rat ASGR-1 is recorded as “binds”; in the assay with Human ASGR-2 it was “binds”; with Dog ASGR-1 it was “no binding”; with Pig ASGR-1, “no binding”.

Values taken from patent US20190248902A1 (published 2019).
